Conversion of metanephric mesenchyme into epithelia (lowest active dose) data for 1 substance are collected here from patent publication US7022666.

The target in the assay is LIF receptor/gp130 heterodimer (rat) (UniProt O70535). Description: cell-based or functional assay.
UniProt O70535, sequence (O70535 44-1093, chain 1 of 2): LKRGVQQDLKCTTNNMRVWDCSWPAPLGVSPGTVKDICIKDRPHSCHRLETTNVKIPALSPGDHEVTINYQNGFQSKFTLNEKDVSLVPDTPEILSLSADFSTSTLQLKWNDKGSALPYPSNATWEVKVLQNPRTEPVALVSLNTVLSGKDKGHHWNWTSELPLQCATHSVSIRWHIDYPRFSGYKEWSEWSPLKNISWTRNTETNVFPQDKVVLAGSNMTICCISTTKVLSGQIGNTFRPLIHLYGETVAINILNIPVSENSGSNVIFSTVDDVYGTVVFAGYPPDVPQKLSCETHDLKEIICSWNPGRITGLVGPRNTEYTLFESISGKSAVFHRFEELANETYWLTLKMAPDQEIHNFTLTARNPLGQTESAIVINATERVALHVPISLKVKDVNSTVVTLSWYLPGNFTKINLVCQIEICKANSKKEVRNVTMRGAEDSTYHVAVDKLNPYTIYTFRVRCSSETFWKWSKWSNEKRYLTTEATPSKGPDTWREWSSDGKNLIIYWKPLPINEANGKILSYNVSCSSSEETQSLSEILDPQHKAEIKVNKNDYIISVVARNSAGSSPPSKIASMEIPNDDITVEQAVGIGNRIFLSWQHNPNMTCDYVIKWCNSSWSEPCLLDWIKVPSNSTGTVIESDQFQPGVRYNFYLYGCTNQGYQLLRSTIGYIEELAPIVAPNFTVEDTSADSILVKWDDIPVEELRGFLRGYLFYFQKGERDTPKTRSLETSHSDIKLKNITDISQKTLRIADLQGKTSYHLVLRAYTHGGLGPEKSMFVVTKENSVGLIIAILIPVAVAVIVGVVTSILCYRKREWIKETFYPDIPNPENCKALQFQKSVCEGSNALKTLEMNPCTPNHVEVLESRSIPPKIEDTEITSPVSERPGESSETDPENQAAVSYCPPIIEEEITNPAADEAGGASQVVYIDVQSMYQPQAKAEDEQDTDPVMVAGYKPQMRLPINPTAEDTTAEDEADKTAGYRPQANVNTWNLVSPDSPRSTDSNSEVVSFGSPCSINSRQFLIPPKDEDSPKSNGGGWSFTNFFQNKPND
UniProt O70535, sequence (P40190 23-918, chain 2 of 2, further chain): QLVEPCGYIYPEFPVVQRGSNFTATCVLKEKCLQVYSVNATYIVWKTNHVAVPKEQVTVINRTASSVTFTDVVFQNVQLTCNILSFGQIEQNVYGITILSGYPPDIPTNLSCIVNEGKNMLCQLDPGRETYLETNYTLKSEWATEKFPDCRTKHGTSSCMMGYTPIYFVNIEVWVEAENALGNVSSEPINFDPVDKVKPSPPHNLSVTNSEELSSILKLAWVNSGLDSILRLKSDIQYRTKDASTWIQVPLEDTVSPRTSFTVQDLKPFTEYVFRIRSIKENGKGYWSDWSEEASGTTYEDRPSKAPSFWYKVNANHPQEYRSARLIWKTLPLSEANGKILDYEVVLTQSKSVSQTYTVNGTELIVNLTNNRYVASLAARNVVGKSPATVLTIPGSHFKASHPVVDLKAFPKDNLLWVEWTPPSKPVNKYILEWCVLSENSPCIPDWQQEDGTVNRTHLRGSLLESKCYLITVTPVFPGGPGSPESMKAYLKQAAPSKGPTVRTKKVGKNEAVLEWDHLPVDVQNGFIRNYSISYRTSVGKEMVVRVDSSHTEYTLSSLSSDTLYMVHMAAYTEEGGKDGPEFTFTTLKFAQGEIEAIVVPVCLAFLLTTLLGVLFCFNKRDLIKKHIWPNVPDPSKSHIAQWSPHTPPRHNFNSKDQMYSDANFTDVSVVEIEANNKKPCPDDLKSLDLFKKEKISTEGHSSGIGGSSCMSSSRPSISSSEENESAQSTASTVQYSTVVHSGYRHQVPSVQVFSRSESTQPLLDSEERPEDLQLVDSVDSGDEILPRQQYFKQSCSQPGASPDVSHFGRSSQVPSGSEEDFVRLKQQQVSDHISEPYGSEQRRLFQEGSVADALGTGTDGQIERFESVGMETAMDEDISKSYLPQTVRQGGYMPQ

In the case of “recombinant leukemia inhibitory factor (ligand)”, the conversion of metanephric mesenchyme into epithelia (lowest active dose) came to 0.2 nM.
